B1: sp¦O14737¦PDCD5_HUMAN (protein, UniProt O14737 2-125, looked up)
Programmed cell death protein …: ADEELEALRRQRLAELQAKHGDPGDAAQQEAKHREAEMRNSILAQVLDQSARARLSNLALVKPEKTKAVENYLIQMARYGQLSEKVSEQGLIEILKKVSQQTEKTTTVKFNRRKVMDSDEDDDY
B2: sp¦P27348¦1433T_HUMAN (protein, UniProt P27348 1-245, looked up)
14-3-3 protein theta: MEKTELIQKAKLAEQAERYDDMATCMKAVTEQGAELSNEERNLLSVAYKNVVGGRRSAWRVISSIEQKTDTSDKKLQLIKDYREKVESELRSICTTVLELLDKYLIANATNPESKVFYLKMKGDYFRYLAEVACGDDRKQTIDNSQGAYQEAFDISKKEMQPTHPIRLGLALNFSVFYYEILNNPELACTLAKTAFDEAIAELDTLNEDSYKDSTLIMQLLRDNLTLWTSDSAGEECDAAEGAEN
B3: sp¦Q16543¦CDC37_HUMAN (protein, UniProt Q16543 1-378, looked up)
Hsp90 co-chaperone Cdc37: MVDYSVWDHIEVSDDEDETHPNIDTASLFRWRHQARVERMEQFQKEKEELDRGCRECKRKVAECQRKLKELEVAEGGKAELERLQAEAQQLRKEERSWEQKLEEMRKKEKSMPWNVDTLSKDGFSKSMVNTKPEKTEEDSEEVREQKHKTFVEKYEKQIKHFGMLRRWDDSQKYLSDNVHLVCEETANYLVIWCIDLEVEEKCALMEQVAHQTIVMQFILELAKSLKVDPRACFRQFFTKIKTADRQYMEGFNDELEAFKERVRGRAKLRIEKAMKEYEEEERKKRLGPGGLDPVEVYESLPEELQKCFDVKDVQMLQDAISKMDPTDAKYHMQRCIDSGLWVPNSKASEAKEGEEAGPGDPLLEAVPKTGDEKDVSV
B4: sp¦P60981¦DEST_HUMAN (protein, UniProt P60981 2-165, looked up)
Destrin: ASGVQVADEVCRIFYDMKVRKCSTPEEIKKRKKAVIFCLSADKKCIIVEEGKEILVGDVGVTITDPFKHFVGMLPEKDCRYALYDASFETKESRKEELMFFLWAPELAPLKSKMIYASSKDAIKKKFQGIKHECQANGPEDLNRACIAEKLGGSLIVAFEGCPV
B5: sp¦Q9Y244¦POMP_HUMAN (protein, UniProt Q9Y244 1-141, looked up)
Proteasome maturation protein: MNARGLGSELKDSIPVTELSASGPFESHDLLRKGFSCVKNELLPSHPLELSEKNFQLNQDKMNFSTLRNIQGLFAPLKLQMEFKAVQQVQRLPFLSSSNLSLDVLRGNDETIGFEDILNDPSQSEVMGEPHLMVEYKLGLL
B6: sp¦O00154¦BACH_HUMAN (protein, UniProt O00154 1-380, looked up)
Cytosolic acyl coenzyme A …: MKLLARALRLCEFGRQASSRRLVAGQGCVGPRRGCCAPVQVVGPRADLPPCGACITGRIMRPDDANVAGNVHGGTILKMIEEAGAIISTRHCNSQNGERCVAALARVERTDFLSPMCIGEVAHVSAEITYTSKHSVEVQVNVMSENILTGAKKLTNKATLWYVPLSLKNVDKVLEVPPVVYSRQEQEEEGRKRYEAQKLERMETKWRNGDIVQPVLNPEPNTVSYSQSSLIHLVGPSDCTLHGFVHGGVTMKLMDEVAGIVAARHCKTNIVTASVDAINFHDKIRKGCVITISGRMTFTSNKSMEIEVLVDADPVVDSSQKRYRAASAFFTYVSLSQEGRSLPVPQLVPETEDEKKRFEEGKGRYLQMKAKRQGHAEPQP
B7: sp¦P11279¦LAMP1_HUMAN (protein, UniProt P11279 29-417, looked up)
Lysosome-associated membrane …: AMFMVKNGNGTACIMANFSAAFSVNYDTKSGPKNMTFDLPSDATVVLNRSSCGKENTSDPSLVIAFGRGHTLTLNFTRNATRYSVQLMSFVYNLSDTHLFPNASSKEIKTVESITDIRADIDKKYRCVSGTQVHMNNVTVTLHDATIQAYLSNSSFSRGETRCEQDRPSPTTAPPAPPSPSPSPVPKSPSVDKYNVSGTNGTCLLASMGLQLNLTYERKDNTTVTRLLNINPNKTSASGSCGAHLVTLELHSEGTTVLLFQFGMNASSSRFFLQGIQLNTILPDARDPAFKAANGSLRALQATVGNSYKCNAEEHVRVTKAFSVNIFKVWVQAFKVEGGQFGSVEECLLDENSMLIPIAVGGALAGLVLIVLIAYLVGRKRSHAGYQTI
B8: Inter-alpha-trypsin inhibitor heavy chain H2 (protein, UniProt P19823 55-702, looked up)
Inter-alpha-trypsin inhibitor …: SLPGESEEMMEEVDQVTLYSYKVQSTITSRMATTMIQSKVVNNSPQPQNVVFDVQIPKGAFISNFSMTVDGKTFRSSIKEKTVGRALYAQARAKGKTAGLVRSSALDMENFRTEVNVLPGAKVQFELHYQEVKWRKLGSYEHRIYLQPGRLAKHLEVDVWVIEPQGLRFLHVPDTFEGHFDGVPVISKGQQKAHVSFKPTVAQQRICPNCRETAVDGELVVLYDVKREEKAGELEVFNGYFVHFFAPDNLDPIPKNILFVIDVSGSMWGVKMKQTVEAMKTILDDLRAEDHFSVIDFNQNIRTWRNDLISATKTQVADAKRYIEKIQPSGGTNINEALLRAIFILNEANNLGLLDPNSVSLIILVSDGDPTVGELKLSKIQKNVKENIQDNISLFSLGMGFDVDYDFLKRLSNENHGIAQRIYGNQDTSSQLKKFYNQVSTPLLRNVQFNYPHTSVTDVTQNNFHNYFGGSEIVVAGKFDPAKLDQIESVITATSANTQLVLETLAQMDDLQDFLSKDKHADPDFTRKLWAYLTINQLLAERSLAPTAAAKRRITRSILQMSLDHHIVTPLTSLVIENEAGDERMLADAPPQDPSCCSGALYYGSKVVPDSTPSWANPSPTPVISMLAQGSQVLESTPPPHVMRVEND
B9: Pre-rRNA-processing protein TSR1 homolog (protein, UniProt Q2NL82 1-804, looked up)
Pre-rRNA-processing protein …: MAAHRPGPLKQQNKAHKGGRHRGRGSAQRDGKGRLALKTLSKKVRKELSRVDQRHRASQLRKQKKEAVLAEKRQLGGKDGPPHQVLVVPLHSRISLPEAMQLLQDRDTGTVHLNELGNTQNFMLLCPRLKHRWFFTSARPGDLHVVLDMAKVADTILFLLDPLEGWDSTGDYCLSCLFAQGLPTYTLAVQGISGLPLKKQIDTRKKLSKAVEKRFPHDKLLLLDTQQEAGMLLRQLANQKQQHLAFRDRRAYLFAHAVDFVPSEENNLVGTLKISGYVRGQTLNVNRLLHIVGYGDFQMKQIDAPGDPFPLNPRGIKPQKDPDMAMEICATDAVDDMEEGLKVLMKADPGRQESLQAEVIPDPMEGEQTWPTEEELSEAKDFLKESSKVVKKVPKGTSSYQAEWILDGGSQSGGEGDEYEYDDMEHEDFMEEESQDESSEEEEEYETMTIGESVHDDLYDKKVDEEAEAKMLEKYKQERLEEMFPDEVDTPRDVAARIRFQKYRGLKSFRTSPWDPKENLPQDYARIFQFQNFTNTRKSIFKEVEEKEVEGAEVGWYVTLHVSEVPVSVVECFRQGTPLIAFSLLPHEQKMSVLNMVVRRDPGNTEPVKAKEELIFHCGFRRFRASPLFSQHTAADKHKLQRFLTADMALVATVYAPITFPPASVLLFKQKSNGMHSLIATGHLMSVDPDRMVIKRVVLSGHPFKIFTKMAVVRYMFFNREDVLWFKPVELRTKWGRRGHIKEPLGTHGHMKCSFDGKLKSQDTVLMNLYKRVFPKWTYDPYVPEPVPWLKSEISSTVPQGGME
B10: Myristoylated alanine-rich C-kinase substrate (protein, UniProt P29966 2-332, looked up)
Myristoylated alanine-rich …: GAQFSKTAAKGEAAAERPGEAAVASSPSKANGQENGHVKVNGDASPAAAESGAKEELQANGSAPAADKEEPAAAGSGAASPSAAEKGEPAAAAAPEAGASPVEKEAPAEGEAAEPGSPTAAEGEAASAASSTSSPKAEDGATPSPSNETPKKKKKRFSFKKSFKLSGFSFKKNKKEAGEGGEAEAPAAEGGKDEAAGGAAAAAAEAGAASGEQAAAPGEEAAAGEEGAAGGDPQEAKPQEAAVAPEKPPASDETKAAEEPSKVEEKKAEEAGASAAACEAPSAAGPGAPPEQEAAPAEEPAAAAASSACAAPSQEAQPECSPEAPPAEAAE

Test system: human HL60 cells
Experiment: SWATH-MS proteomics, differential protein representation, akirin2 KO vs WT HL60 cells
Assay type: cell-based
Settings: Over-represented in KO; KO vs WT HL60 cells
Procedure: Total proteins were extracted from WT and akirin2 KO HL60 cells using the AllPrep DNA/RNA/Protein Mini Kit (Qiagen) and protein concentration was determined using the BCA Protein Assay with BSA (Sigma–Aldrich) as standard. Protein extracts (150 µg per sample, n=3 biological replicates) from each WT and KO cells were trypsin digested using the FASP Protein Digestion Kit (Expedeon Ltd., Abcam, Cambridge, U.K.) and sequencing grade trypsin (Promega, Madison, WI, U.S.A.) following manufacturer’s recommendations. The resulting peptides were finally desalted on to OMIX Pipette tips C18 (Agilent Technologies, Santa Clara, CA, U.S.A.), dried down and stored at −20 °C until mass spectrometry analysis. […] Three micrograms of each protein digest from the three biological replicates of WT and akirin2 KO HL60 cells were used for the generation of the reference spectral ion library as part of the SWATH-MS analysis.
Peptides were eluted in a 120-min gradient from 5 to 30% solvent B in solvent A followed by 15-min gradient from 30 to 60% solvent B in solvent A (solvent A: 0.1% formic acid in water, solvent B: 0.1% formic acid in acetonitrile) and directly injected into the mass spectrometer for analysis. For IDA experiments, the mass spectrometer was set to scanning full spectra (350–1400 m/z) using 250 ms accumulation time per spectrum, followed by up to 50 MS/MS scans (100–1500 m/z). Candidate ions with a charge state between +2 and +5 counts per second above a minimum threshold of 100 were isolated for fragmentation. One MS/MS spectrum was collected for 100 ms, before adding those precursor ions to the exclusion list for 15 s (mass spectrometer operated by Analyst TF 1.6, AB Sciex). Dynamic background subtraction was turned off. MS/MS analyses were recorded in high-sensitivity mode with rolling collision energy on and a collision energy spread of 5. For SWATH quantitative analysis, six independent samples (three replicates from WT and akirin2 KO HL60 cells, 5 µg each) were subjected to the cyclic DIA of mass spectra using the SWATH variable windows calculator (V 1.0, AB Sciex) and the SWATH acquisition method editor (AB Sciex), similar to established methods. […] For these experiments, a 50-ms survey scan (350–1400 m/z) was acquired at the beginning of each cycle, and SWATH–MS/MS spectra were collected from 100–1500 m/z for 70 ms at high-sensitivity mode, resulting in a cycle time of 3.6 s. Collision energy for each window was determined according to the calculation for a charge +2 ion-centered upon the window with a collision energy spread of 15. To create a spectral library of all the detectable peptides in the samples, the IDA MS raw files were combined and subjected to database search in unison using ProteinPilot software v. 5.0.1 (AB Sciex) with the Paragon algorithm. […] The detected protein threshold was set at 0.05. An independent false discovery rate (FDR) analysis, using the target–decoy approach provided by Protein Pilot (AB Sciex; https://sciex.com/products/software/proteinpilot-software), was used to assess the quality of identifications. Positive identifications were considered when identified proteins reached 1% of global FDR. […] Global normalization was performed according to the Total Area Sums (TAS) of all detected proteins in the samples. […] Heatmaps were prepared using the Heatmapper (http://www.heatmapper.ca/expression/) with average linkage and Euclidean distance measurement method.

Molecule	Fold Change	Log (Fold Change)
B1	1.307	0.1162
B2	1.296	0.1126
B3	1.314	0.1187
B4	1.321	0.1208
B5	1.341	0.1275
B6	1.305	0.1157
B7	1.301	0.1143

Same assay, conditions: SWATH-MS, akirin2 KO vs WT HL60 cells; over-represented in KO

Molecule	Fold Change	Log (Fold Change)
B8	3.859	0.5865
B9	3.379	0.5288
B10	3.833	0.5836

From PMC8298264, “Function of cofactor Akirin2 in the regulation of gene expression in model human neutrophil-like HL60 cells” (Bioscience Reports, 2021)
